Legend:
[1] = biological target: T1, MarA S62C/L121C S60C;L119C (Escherichia coli MG1655) (UniProt P0ACH5); assay: EMSA; settings: EMSA: 20 mM Hepes pH 8, 100 mM MgCl2, 100 mM EDTA, 0.3 mg/mL BSA, +/- DTT, 0.8 uM MarA, DNA 15 nM (200 bp) or 200 nM (30 bp), 20 min 37 C, 8% native gel, SYBR …
T1 sequence: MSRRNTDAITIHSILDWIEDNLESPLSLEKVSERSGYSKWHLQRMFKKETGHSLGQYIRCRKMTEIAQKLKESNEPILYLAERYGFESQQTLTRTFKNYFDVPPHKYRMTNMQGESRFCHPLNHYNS

[2] = biological target: T2, MarA I16C/M47C I14C;M45C (Escherichia coli MG1655) (UniProt P0ACH5); assay: EMSA; settings: EMSA: 20 mM Hepes pH 8, 100 mM MgCl2, 100 mM EDTA, 0.3 mg/mL BSA, +/- DTT, 0.8 uM MarA, DNA 15 nM (200 bp) or 200 nM (30 bp), 20 min 37 C, 8% native gel, SYBR …
T2 sequence: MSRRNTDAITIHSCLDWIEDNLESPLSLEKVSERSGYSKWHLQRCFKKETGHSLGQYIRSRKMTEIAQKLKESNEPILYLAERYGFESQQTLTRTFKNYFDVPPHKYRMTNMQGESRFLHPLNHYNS

[3] = biological target: T3, MarA I13C/M47C I11C;M45C (Escherichia coli MG1655) (UniProt P0ACH5); assay: EMSA; settings: EMSA: 20 mM Hepes pH 8, 100 mM MgCl2, 100 mM EDTA, 0.3 mg/mL BSA, +/- DTT, 0.8 uM MarA, DNA 15 nM (200 bp) or 200 nM (30 bp), 20 min 37 C, 8% native gel, SYBR …
T3 sequence: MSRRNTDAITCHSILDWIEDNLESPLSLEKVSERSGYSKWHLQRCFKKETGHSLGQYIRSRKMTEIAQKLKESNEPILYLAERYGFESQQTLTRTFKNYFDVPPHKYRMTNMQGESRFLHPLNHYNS

[4] = biological target: T4, MarA WT (Escherichia coli MG1655) (UniProt P0ACH5); assay: EMSA; settings: EMSA: 20 mM Hepes pH 8, 100 mM MgCl2, 100 mM EDTA, 0.3 mg/mL BSA, +/- DTT, 0.8 uM MarA, DNA 15 nM (200 bp) or 200 nM (30 bp), 20 min 37 C, 8% native gel, SYBR …
T4 sequence: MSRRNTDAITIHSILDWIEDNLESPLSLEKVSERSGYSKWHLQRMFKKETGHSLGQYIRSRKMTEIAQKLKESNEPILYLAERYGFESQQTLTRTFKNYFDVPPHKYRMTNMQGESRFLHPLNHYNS

[5] = biological target: T5, MarA I16C/M47C (Escherichia coli MG1655, UniProt P0ACH5 1-127, I14C;M45C); assay: EMSA; 0.5 or 1 mM DTT; EMSA: 20 mM Hepes pH 8, 100 mM MgCl2, 100 mM EDTA, 0.3 mg/mL BSA, +/- DTT, 0.8 uM MarA, DNA 15 nM (200 bp) or 200 nM (30 bp), 20 min 37 C, 8% native gel, SYBR green; settings: protein: recombinant; tags: N-terminal 6xHis (pET-15b); blunt
T5 sequence: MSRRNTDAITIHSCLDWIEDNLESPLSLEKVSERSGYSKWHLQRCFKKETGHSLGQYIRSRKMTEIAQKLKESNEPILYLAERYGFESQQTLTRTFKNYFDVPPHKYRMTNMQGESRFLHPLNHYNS

[6] = biological target: T6, MarA I13C/M47C (Escherichia coli MG1655, UniProt P0ACH5 1-127, I11C;M45C); assay: EMSA; no DTT (disulfide); EMSA: 20 mM Hepes pH 8, 100 mM MgCl2, 100 mM EDTA, 0.3 mg/mL BSA, +/- DTT, 0.8 uM MarA, DNA 15 nM (200 bp) or 200 nM (30 bp), 20 min 37 C, 8% native gel, SYBR green; settings: protein: recombinant; tags: N-terminal 6xHis (pET-15b); blunt
T6 sequence: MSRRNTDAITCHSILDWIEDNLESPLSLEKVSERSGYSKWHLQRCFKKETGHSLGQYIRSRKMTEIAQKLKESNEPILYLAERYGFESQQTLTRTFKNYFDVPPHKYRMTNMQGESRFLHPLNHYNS

[7] = biological target: T7, MarA WT (Escherichia coli MG1655, UniProt P0ACH5 1-127); assay: EMSA; no DTT; EMSA: 20 mM Hepes pH 8, 100 mM MgCl2, 100 mM EDTA, 0.3 mg/mL BSA, +/- DTT, 0.8 uM MarA, DNA 15 nM (200 bp) or 200 nM (30 bp), 20 min 37 C, 8% native gel, SYBR green; settings: protein: recombinant; tags: N-terminal 6xHis (pET-15b); blunt
T7 sequence: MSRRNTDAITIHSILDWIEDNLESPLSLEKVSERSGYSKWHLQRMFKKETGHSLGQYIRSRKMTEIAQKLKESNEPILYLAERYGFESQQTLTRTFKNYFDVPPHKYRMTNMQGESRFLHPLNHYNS

GTTATCCTGTGTATCTGGGTTATCAGCGAAAAGTATAAGGGGTAAACAAGGATAAAGTGTCACTCTTTAGCTAGCCTTGCATCGCATTGAACAAAACTTGAACCGATTTAGCAAAACGTGGCATCGGTCAATTCATTCATTTGACTTATACTTGCCTGGGCAATATTATCCCCTGCAACTAATTACTTGCCAGGGCAAC (double strand) [marRAB 200-bp fragment]
binds: binding [1] | binding [2] | binding [3] | binding [4]

B1: marRAB 30-bp marbox (dsDNA)
DNA 1: GAACCGATTTAGCAAAACGTGGCATCGGTC
DNA 2: GACCGATGCCACGTTTTGCTAAATCGGTTC
binds: binding result [5] | binding result [6] | binding result [7]
